The source of these data is US6413935.

The target in this assay is HLA-DQ3.1 (DQA1*0301/DQB1*0310), purified from PF cells (human) (UniProt P01909). The experiment in a line: 125I-peptide inhibition, purified class II.

lambda rep 12-26 (peptide) came in with an IC50 above 10 µM.
